Data on two molecules can be found in PMC12331092, “An arginine switch drives the stepwise activation of β-arrestin by CXCR7” (PLOS Biology, 2025).

Square brackets hold non-standard residues; d marks the D form. Ends that are not written are not given here. pT = C[C@@H](OP(=O)(O)O)[C@H](N)C(=O)O; pS = N[C@@H](COP(=O)(O)O)C(=O)O

Common to all, as to settings: both partners purified
Assay [1] concerns the target T1, Rattus norvegicus wild-type β-arrestin2 (Rattus norvegicus, UniProt P29067 1-410).
T1 construct: β-arrestin2, Rattus norvegicus, UniProt P29067, cloned into pET-28a; also called βarr2; wild-type βarr2; source: E. coli BL21(DE3)pLysS, purified (Ni-sepharose, HiTrap heparin, Superdex 200 gel filtration); not shown: His6, N-terminal, kept
The assay can be described thus: pull-down; 20 μg βarr2 pre-incubated with or without peptide (5:1 peptide:βarr2, 4 °C, 1 h), then GST beads with 30 μg GST-clathrin, 2 h at 4 °C; 20 mM Tris-HCl pH 8.0, 100 mM NaCl, 1 mM DTT; GSH elution, anti-His Western blot. Background: Immunoblotting shows a protein as a band on a membrane.

The target of assay [2] is T1, Rattus norvegicus wild-type β-arrestin2. Kind of assay: ITC; 1 mM peptide injected (2.5 μL, 200 s intervals) into 200 μM βarr2 in the cell; 298 K; 20 mM HEPES pH 7.0, 200 mM NaCl; two-site model for the wild type.
In another assay the target is T2, βarr2 R166A mutant (Rattus norvegicus, UniProt P29067 1-410, R166A).
T2 construct: β-arrestin2, rat (as the wild type m1), with R166A; also called R166A (site I); source: purified
T2 sequence (P29067 whole entry R166A): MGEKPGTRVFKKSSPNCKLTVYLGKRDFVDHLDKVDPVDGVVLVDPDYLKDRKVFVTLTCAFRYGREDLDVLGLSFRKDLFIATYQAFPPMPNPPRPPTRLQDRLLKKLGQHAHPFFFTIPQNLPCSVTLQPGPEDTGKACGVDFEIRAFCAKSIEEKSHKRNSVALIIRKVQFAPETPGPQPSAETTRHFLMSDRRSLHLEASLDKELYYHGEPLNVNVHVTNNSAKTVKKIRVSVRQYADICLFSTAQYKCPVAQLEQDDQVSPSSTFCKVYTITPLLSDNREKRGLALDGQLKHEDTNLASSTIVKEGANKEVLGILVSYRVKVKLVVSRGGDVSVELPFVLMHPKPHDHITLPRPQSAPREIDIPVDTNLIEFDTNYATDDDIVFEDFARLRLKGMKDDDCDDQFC
Described as above.

For a further assay, the target named is T3, βarr2 R394A mutant (Rattus norvegicus, UniProt P29067 1-410, R394A).
T3 construct: β-arrestin2, rat (as the wild type m1), with R394A; also called R394A (site II); source: purified
T3 sequence (P29067 whole entry R394A): as the sequence (P29067 whole entry R166A) above, with A166R, R394A counted along it
The assay is described as above.

T1 sequence (P29067 whole entry): as the sequence (P29067 whole entry R166A) above, with A166R counted along it

B1: C7pp3, phosphopeptide from the carboxyl terminus of CXCR7 (residues 346-362) (peptide, UniProt P25106 346-362, looked up)
peptide: A[pS]RV[pS]E[pT]EY[pS]ALEQ[pS][pT]K
notes: CXCR7, C-terminal residues 346-362; source: synthetic peptide (NovoPep and Tufts University Core Facility)
As for B1, the binding result in assay [1] is listed as “binds”.

B2: C7pp2, phosphopeptide from the carboxyl terminus of CXCR7 (residues 346-359) (peptide, UniProt P25106 346-359, looked up)
peptide: ASRV[pS]E[pT]EY[pS]ALEQ
notes: CXCR7 (atypical chemokine receptor), C-terminal residues 346-359; also called distal phospho-site cluster PxPxxP; source: synthetic peptide (NovoPep and Tufts University Core Facility)
By Kd is commonly meant a measure of binding affinity in units of concentration. A higher Kd goes with lower affinity. Take B2: the binding result in assay [2] is given as “binds”. For the same molecule, the dissociation constant (Kd) with βarr2 R166A mutant came to 16.4 µM; with βarr2 R394A mutant it was 1.1 µM.
